Laboratory results reported in paper PMC3652601, “Structure of a dimeric crenarchaeal Cas6 enzyme with an atypical active site for CRISPR RNA processing” (Biochemical Journal, 2013).

Legend:
[1] = target: the molecule itself; experiment: crystal structure; selenomethionine-labelled methylated protein; 0.05 M bicine pH 9.1, 28% PEG 3350; SAD, 2.8 Å; four monomers in the asymmetric unit; interface analysed with PDBePISA
[2] = target: the molecule itself; experiment: SEC; calibrated gel filtration, HiLoad 26/600 Superdex 200, 20 mM Tris/HCl pH 7.5, 1 M NaCl; calibrated with Bio-Rad standards

B1: selenomethionine-labelled methylated SsoCas6 (enzyme, Sulfolobus solfataricus)
chain: PLIFKIGYNVIPLQDVILPTPSSKVLKYLIQSGKLLPSLNNLITSRDKYKPIFISHLGLNQRRIFQTNGNLKTISRGSKLSSTIAFSTQVNVLPELDEGVFETIYGKFHITIESVEIVEVEKLKEEVEKHMNDNIRVRFISPTLLSSKVLLPPSLSERYKRVNAGYSTLPSVGLIVAYAYNVYCNLIGKKEVEVRAFKFGVISNALSRIIGYDLHPVTIVIGEDSKGNLRKARGVMGWIEFDIPDEKLKRRALRYLLASSYLGIGRSRGIGFGEIKLEFIKREENH
modifications: (L)-selenomethionine derivative; surface lysine residues reductively methylated
notes: Cas6 paralogue Sso1437 of Sulfolobus solfataricus; residues 43-50 and 90-93 disordered in the crystal; Same construct as m1, labelled with selenomethionine and methylated for crystallography; also called (L)-selenomethionine derivative of SsoCas6; not shown: His6, N-terminal, cleaved
- binding result [1]: binds

B2: SsoCas6 K28H variant (enzyme, Sulfolobus solfataricus)
chain: PLIFKIGYNVIPLQDVILPTPSSKVLHYLIQSGKLLPSLNNLITSRDKYKPIFISHLGLNQRRIFQTNGNLKTISRGSKLSSTIAFSTQVNVLPELDEGVFETIYGKFHITIESVEIVEVEKLKEEVEKHMNDNIRVRFISPTLLSSKVLLPPSLSERYKRVNAGYSTLPSVGLIVAYAYNVYCNLIGKKEVEVRAFKFGVISNALSRIIGYDLHPVTIVIGEDSKGNLRKARGVMGWIEFDIPDEKLKRRALRYLLASSYLGIGRSRGIGFGEIKLEFIKREENH
notes: Cas6 paralogue Sso1437 of Sulfolobus solfataricus with K28H; Used in the calibrated gel filtration in place of the wild type; source: E. coli, purified according to the same protocol as the wild type; not shown: His6, N-terminal, cleaved
- stoichiometry N [2]: 2

B3: Sulfolobus solfataricus Cas6 (Sso1437), wild type (enzyme)
chain: PLIFKIGYNVIPLQDVILPTPSSKVLKYLIQSGKLLPSLNNLITSRDKYKPIFISHLGLNQRRIFQTNGNLKTISRGSKLSSTIAFSTQVNVLPELDEGVFETIYGKFHITIESVEIVEVEKLKEEVEKHMNDNIRVRFISPTLLSSKVLLPPSLSERYKRVNAGYSTLPSVGLIVAYAYNVYCNLIGKKEVEVRAFKFGVISNALSRIIGYDLHPVTIVIGEDSKGNLRKARGVMGWIEFDIPDEKLKRRALRYLLASSYLGIGRSRGIGFGEIKLEFIKREENH
notes: Cas6 paralogue Sso1437 of Sulfolobus solfataricus, gene amplified by PCR from genomic DNA; expected molecular mass of the monomer 33 kDa; Cloned into pET151-TOPO; also called SsoCas6; wild-type (WT) enzyme; source: E. coli C43(DE3), purified (Ni-NTA, TEV cleavage, Superdex 75 gel filtration); not shown: His6, N-terminal, cleaved
- stoichiometry N [2]: 2
